From patent US20230012273A1 (Boehringer Ingelheim, published 2023)

T1: cynoSIRPα (XP_015313155), Extracellular Domain + His-Tag (cynomolgus monkey)
T1 construct: also called CySIRPα XP_015313155; not shown: His-Tag
T1 chain: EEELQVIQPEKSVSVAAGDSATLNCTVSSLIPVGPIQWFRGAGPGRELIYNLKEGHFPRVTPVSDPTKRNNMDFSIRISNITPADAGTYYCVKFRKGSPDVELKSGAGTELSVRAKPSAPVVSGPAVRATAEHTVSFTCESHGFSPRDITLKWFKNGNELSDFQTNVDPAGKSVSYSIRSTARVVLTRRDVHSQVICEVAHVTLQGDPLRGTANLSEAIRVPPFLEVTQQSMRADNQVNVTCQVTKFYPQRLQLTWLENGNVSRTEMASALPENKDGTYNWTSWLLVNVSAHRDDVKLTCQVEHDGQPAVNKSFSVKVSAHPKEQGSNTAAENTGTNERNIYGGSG

T2: cynoSIRPα (NP_001271679), Extracellular Domain + His-Tag (cynomolgus monkey)
T2 construct: also called CySIRPα NP_001271679; not shown: His-Tag
T2 chain: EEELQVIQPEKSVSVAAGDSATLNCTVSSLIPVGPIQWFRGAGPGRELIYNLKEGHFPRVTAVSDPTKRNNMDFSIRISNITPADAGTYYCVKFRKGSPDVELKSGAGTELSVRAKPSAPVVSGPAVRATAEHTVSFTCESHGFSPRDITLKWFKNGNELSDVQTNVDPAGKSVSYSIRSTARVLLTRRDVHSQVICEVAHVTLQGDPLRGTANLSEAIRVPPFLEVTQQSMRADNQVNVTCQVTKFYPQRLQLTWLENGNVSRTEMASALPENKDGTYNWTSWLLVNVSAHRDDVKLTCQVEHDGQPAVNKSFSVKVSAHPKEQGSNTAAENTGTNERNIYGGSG

T3: cynoSIRPα (EGM_02252), Extracellular Domain + His-Tag (cynomolgus monkey)
T3 construct: also called CySIRPα EGM_02252; not shown: His-Tag
T3 chain: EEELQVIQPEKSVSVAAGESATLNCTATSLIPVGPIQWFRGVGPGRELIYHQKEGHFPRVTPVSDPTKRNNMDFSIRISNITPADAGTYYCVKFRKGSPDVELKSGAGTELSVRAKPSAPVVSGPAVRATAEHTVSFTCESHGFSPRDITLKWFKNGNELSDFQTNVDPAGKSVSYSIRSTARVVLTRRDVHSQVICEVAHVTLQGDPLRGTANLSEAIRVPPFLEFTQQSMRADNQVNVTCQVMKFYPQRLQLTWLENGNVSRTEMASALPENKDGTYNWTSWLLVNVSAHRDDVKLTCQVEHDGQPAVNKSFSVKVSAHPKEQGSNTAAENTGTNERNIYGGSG


How the values were obtained:
[1] = target: T1, cynoSIRPα (XP_015313155), Extracellular …; test: SPR, antibody captured on Protein A/G, ECD-His analyte, 1:1 fit
Outline: (§1)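 Analyte was His-tagged SIRPα extracellular domain in dilution series, associating 300 s and dissociating 600 s at 30 μl/min. Ligand was antibody captured (~240 RU) on immobilized Protein A/G (~3000 RU). Running buffer HBS-EP+.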

[2] = target: T4, Human SIRPαV2 (CAA71403.1), Extracellular Domain + His-Tag (human, UniProt P78324 31-373); test: as above
T4 construct: also called huSIRPαV2; hSIRPαV2; not shown: His-Tag
Outline: as §1

[3] = target: T5, Human SIRPαV1 (NP_542970.1), Extracellular Domain + His-Tag (human, UniProt P78324 31-373); test: as above
T5 construct: also called huSIRPαV1; hSIRPαV1; not shown: His-Tag
Outline: as §1

[4] = target: T2, cynoSIRPα (NP_001271679), Extracellular …; test: as above
Outline: as §1

[5] = target: T3, cynoSIRPα (EGM_02252), Extracellular …; test: SPR, antibody captured on Protein A/G, ECD-His analyte
Method: The binding kinetics of anti-SIRPα antibodies to various SIRPα analytes are determined by surface plasmon resonance (SPR) using a Biacore 8K+(Cytiva). 1×HBS-EP+(Cytiva) is used as running buffer and for all the dilutions unless stated otherwise. The Series S CM5 sensorchip is activated with a 1:1 mixture of 0.1 M NHS (N-hydroxysuccinimide) and 0.4 M EDC (1-Ethyl-3-(3-dimethylaminopropyl) carbodiimide hydrochloride) for 420 seconds at a flow rate of 10 μl/min and immobilized with Protein A/G (Thermo Scientific, 10 μg/ml in 10 mM acetate pH 4.5) for 420 seconds at a flowrate of 10 μl/min resulting in approximately 3000 RU of Protein A/G on the surface. The sensorchip is then deactivated with 1 M ethanolamine HCl pH 8.5 for 420 seconds at a flowrate of 10 μl/min.
Antibodies (approximately 1 ug/ml) are captured on the Protein A/G surface for 60 seconds at a flowrate of 10 μl/min resulting in capture levels of approximately 240 RU. Dilutions of each SIRP protein (Extracellular Domain+His-Tag, with the concentrations as indicated) are injected as analytes over the captured antibody for 300 seconds of association at a flowrate of 30 μl/min, followed by a dissociation for 600 seconds.

T5 sequence (P78324 other isoform, or with tags, fused parts or gaps): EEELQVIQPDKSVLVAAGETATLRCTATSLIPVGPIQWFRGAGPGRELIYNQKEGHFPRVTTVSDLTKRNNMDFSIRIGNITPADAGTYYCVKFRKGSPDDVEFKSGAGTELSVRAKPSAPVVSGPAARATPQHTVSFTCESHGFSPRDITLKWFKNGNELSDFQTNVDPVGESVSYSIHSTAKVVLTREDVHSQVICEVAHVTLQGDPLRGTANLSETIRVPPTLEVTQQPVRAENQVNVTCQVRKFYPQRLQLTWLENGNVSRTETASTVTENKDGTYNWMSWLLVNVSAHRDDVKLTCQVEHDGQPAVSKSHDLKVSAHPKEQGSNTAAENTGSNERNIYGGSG
T4 sequence (P78324 other isoform, or with tags, fused parts or gaps): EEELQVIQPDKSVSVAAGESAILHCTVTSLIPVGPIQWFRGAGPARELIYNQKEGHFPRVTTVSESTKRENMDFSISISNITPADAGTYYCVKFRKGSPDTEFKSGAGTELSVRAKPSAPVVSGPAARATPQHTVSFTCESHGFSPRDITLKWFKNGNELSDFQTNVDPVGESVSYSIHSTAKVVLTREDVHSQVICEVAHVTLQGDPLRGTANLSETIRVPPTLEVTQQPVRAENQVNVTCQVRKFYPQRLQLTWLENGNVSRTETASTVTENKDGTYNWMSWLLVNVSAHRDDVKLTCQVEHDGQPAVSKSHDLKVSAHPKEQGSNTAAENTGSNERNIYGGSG

| Kd [1] [nM] | koff [1] [s⁻¹] | kon [1] [M⁻¹ s⁻¹] | Kd [2] [nM] | koff [2] [s⁻¹] | kon [2] [M⁻¹ s⁻¹] | Kd [3] [nM] | koff [3] [s⁻¹] | kon [3] [M⁻¹ s⁻¹] | Kd [4] [nM] | koff [4] [s⁻¹] | kon [4] [M⁻¹ s⁻¹] | binding result [5] | Binder |
| --- | --- | --- | --- | --- | --- | --- | --- | --- | --- | --- | --- | --- | --- |
| 42.2 | 0.0125 | 297000 | 1.26 | 0.000709 | 562000 | 1.67 | 0.000819 | 490000 | 46.1 | 0.0129 | 279000 | no binding (tested: 1000 nM) | Antibody E12 (antibody, human IgG1, kappa, L234A L235A, V domains shown) VH: QVQLQESGPGLVRPSETLSLTCTVSGGSIRNYYWSWIRQPPGKGLEWIGFIYYNGRTFYNPSLKSRVTISLDMSKNQFSLKMTSVTAADTAVYYCARVRAYSGIGLDGTDVWGQGTTVTVSS VL: DIVMTQSPLSLPVTPGEPASISCKSSQSLLYSNAYNYLDWYLQRPGQSPQLLIYLGSNRASGVPDRFSGSGSGTDFTLKISRVEAEDVGVYYCMQALQTPLTFGGGTKVEIKR |
| 37.4 | 0.00711 | 190000 | 0.69 | 0.000338 | 490000 | 1.7 | 0.000671 | 394000 | 38.3 | 0.00755 | 197000 | no binding (tested: 1000 nM) | Antibody E13 (antibody, human IgG1, kappa, L234A L235A, V domains shown) VH: QVQLQESGPGLVRPSETLSLTCTVSGGSIRNYYWSWIRQPPGKGLEWIGFIYYTGRTFYNPSLKSRVTISLDMSINQFSLKMTSVTAADTAVYYCARVRAYSGIGLDGTDVWGQGTTVTVSS VL: DIVMTQSPLSLPVTPGEPASISCKSSQSLLYSNGYAYLDWYLQRPGQSPQLLIYQGSNRASGVPDRFSGSGSGTDFTLKISRVEAEDVGVFYCMQALQTPLTFGGGTKVEIKR |
| 50 | 0.0113 | 226000 | 0.9 | 0.000443 | 493000 | 2.46 | 0.00101 | 410000 | 52.5 | 0.0118 | 224000 | no binding (tested: 1000 nM) | Antibody E18 (antibody, human IgG1, kappa, L234A L235A, V domains shown) VH: QVQLQESGPGLVRPSETLSLTCTVSGGSIRNYYWSWIRQPPGKGLEWIGFIYYTGRTFYNPSLKSRVTISLDMSKNQFSLKMTSVTAADTAVYYCARVRAYSGIGLDGTDVWGQGTTVTVSS VL: DIVMTQSPLSLPVTPGEPASISCKSSQSLLYSNGYAYLDWYLQRPGQSPQLLIYLGSNRASGVPDRFSGSGSGTDFTLKISRVEAEDVGVYYCMQALQTPLTFGGGTKVEIKR |
| 43.2 | 0.0126 | 292000 | 0.8 | 0.000405 | 508000 | 2.36 | 0.000955 | 405000 | 44.8 | 0.0126 | 282000 | no binding (tested: 1000 nM) | Antibody E17 (antibody, human IgG1, kappa, L234A L235A, V domains shown) VH: QVQLQESGPGLVRPSETLSLTCTVSGGSIRNYYWSWIRQPPGKGLEWMGFIYDNGRTFYNPSLKSRVTISLDMSMNQFSLKMTSVTAADTAVYYCARVRAYSGIGLDGTDVWGQGTTVTVSS VL: DIVMTQSPLSLPVTPGEPASISCKSSQSLLYSNAYNYLDWYLQRPGQSPQLLIYLGSNRASGVPDRFSGSGSGTDFTLKISRVEAEDVGVYYCMQALQTPLTFGGGTKVEIKR |
| 44.7 | 0.00687 | 154000 | 0.97 | 0.000399 | 411000 | 2.52 | 0.000843 | 334000 | 46.6 | 0.00725 | 156000 | no binding (tested: 1000 nM) | Antibody E19 (antibody, human IgG1, kappa, L234A L235A, V domains shown) VH: QVQLQESGPGLVRPSETLSLTCTVSGGSIRNYYWSWIRQPPGKGLEWIGFIYYTGRTFYNPSLKSRVTISLDMSKNQFSLKMTSVTAADTAVYYCARVRAYSGIGLDGTDVWGQGTTVTVSS VL: DIVMTQSPLSLPVTPGEPASISCKSSQSLLYSNGYAYLDWYLQRPGQSPQLLIYQGSNRASGVPDRFSGSGSGTDFTLKISRVEAEDVGVFYCMQALQTPLTFGGGTKVEIKR |
| 48.8 | 0.0147 | 300000 | 1.93 | 0.00105 | 547000 | 2.15 | 0.00106 | 490000 | 50 | 0.0158 | 313000 | no binding (tested: 1000 nM) | Antibody E16 (antibody, human IgG1, kappa, L234A L235A, V domains shown) VH: QVQLQESGPGLVRPSETLSLTCTVSGGSIRNYYWSWIRQPPGKGLEWIGFIYYNGRTFYNPSLKSRVTISLDTSKNQFSLKMTSVTAADTAVYYCARVRAYSGIGLDGTDVWGQGTTVTVSS VL: DIVMTQSPLSLPVTPGEPASISCKSSQSLLYSNAYNYLDWYLQRPGQSPQLLIYLGSNRASGVPDRFSGSGSGTDFTLKISRVEAEDVGVYYCMQALQTPLTFGGGTKVEIKR |
| 46.2 | 0.0113 | 245000 | 0.74 | 0.000369 | 501000 | 1.91 | 0.000802 | 421000 | 49.4 | 0.012 | 243000 | no binding (tested: 1000 nM) | Antibody E15 (antibody, human IgG1, kappa, L234A L235A, V domains shown) VH: QVQLQESGPGLVRPSETLSLTCTVSGGSIRNYYWSWIRQPPGKGLEWIGFIYYTGRTFYNPSLKSRVTISLDMSINQFSLKMTSVTAADTAVYYCARVRAYSGIGLDGTDVWGQGTTVTVSS VL: DIVMTQSPLSLPVTPGEPASISCKSSQSLLYSNGYAYLDWYLQRPGQSPQLLIYLGSNRASGVPDRFSGSGSGTDFTLKISRVEAEDVGVYYCMQALQTPLTFGGGTKVEIKR |
| 86.3 | 0.0173 | 200000 | 1.36 | 0.000615 | 453000 | 1.84 | 0.000743 | 403000 | 90.7 | 0.0173 | 190000 | no binding (tested: 1000 nM) | Antibody E14 (antibody, human IgG1, kappa, L234A L235A, V domains shown) VH: QVQLQESGPGLVRPSETLSLTCTVSGGSIRNYYWSWIRQPPGKGLEWIGFIYYNGRTFYNPSLKSRVTISLDKSKNQFSLKMTSVTAADTAVYYCARVRAYSGIGLDGTDVWGQGTTVTVSS VL: DIVMTQSPLSLPVTPGEPASISCKSSQSLLYSNAYNYLDWYLQRPGQSPQLLIYLGSNRASGVPDRFSGSGSGTDFTLKISRVEAEDVGVYYCMQALQTPLTFGGGTKVEIKR |
